No end group written: not given here. *: point of attachment. Biotin = O=C1N[C@H]2[C@H](CS[C@H]2CCCCC(=O)*)N1
Assays:
[1] = target: T1, sortilin protein with a C-terminal 6×His-tag (Homo sapiens (Human), UniProt Q99523 78-755, directly conjugated with d2 in assay format #3 (site not stated); unlabeled and detected with d2-labeled 1C12 in assay format #10); test: HTRF, assay format #10: sortilin at 9 nM, anti-sortilin 1C12 at 20 ng/well, SA-Tb at 0.33 nM; assay format #10: sortilin detected with anti-sortilin 1C12 antibody, SA-Tb
T1 construct: Soluble sortilin of the HTRF assays; also called sortilin-d2; Tb-conjugated sortilin protein
T1 sequence: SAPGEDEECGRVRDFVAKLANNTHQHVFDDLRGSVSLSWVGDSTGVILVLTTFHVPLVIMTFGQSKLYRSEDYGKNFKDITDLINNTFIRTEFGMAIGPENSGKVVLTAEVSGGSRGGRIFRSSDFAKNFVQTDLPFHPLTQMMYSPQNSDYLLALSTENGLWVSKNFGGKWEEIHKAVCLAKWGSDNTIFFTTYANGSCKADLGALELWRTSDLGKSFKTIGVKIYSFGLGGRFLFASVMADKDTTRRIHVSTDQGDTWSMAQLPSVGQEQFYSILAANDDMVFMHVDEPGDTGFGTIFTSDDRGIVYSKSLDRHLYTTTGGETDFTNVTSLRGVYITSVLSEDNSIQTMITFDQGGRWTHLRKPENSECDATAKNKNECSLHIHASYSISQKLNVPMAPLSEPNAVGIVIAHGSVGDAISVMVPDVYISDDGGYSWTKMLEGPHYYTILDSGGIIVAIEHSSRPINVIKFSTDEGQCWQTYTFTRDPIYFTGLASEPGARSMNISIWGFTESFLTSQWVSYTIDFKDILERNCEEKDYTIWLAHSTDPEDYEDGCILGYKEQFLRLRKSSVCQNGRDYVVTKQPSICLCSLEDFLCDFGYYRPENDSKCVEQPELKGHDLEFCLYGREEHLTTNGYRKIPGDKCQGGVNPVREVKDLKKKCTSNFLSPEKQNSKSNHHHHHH
Description: (§1) Assay #3 uses directly d2 conjugated sortilin and SA-Tb to detect the peptide. […] Assay #10 uses anti-sortilin 1C12 antibody to detect sortilin and SA-Tb to detect the peptide.

[2] = target: T1, sortilin protein with a C-terminal …; test: row HotKdNM of the drawn table: Kd of the labelled (biotinylated) peptide for sortilin, held constant in the Ki fit of assay format 10; same value in all three columns
[3] = target: T1, sortilin protein with a C-terminal …; test: HTRF, assay format #3: sortilin-d2 at 9 nM, SA-Tb at 0.33 nM; assay format #3: directly d2 conjugated sortilin, SA-Tb
Description: as §1

[4] = target: T2, human sortilin expressed on cells (human, UniProt Q99523 78-831); test: flow cytometry on transiently transfected HEK293T cells, on ice, Streptavidin-APC, median fluorescence intensity
T2 construct: Transiently transfected HEK293T cells; also called Sortilin1; full-length Sortilin
T2 sequence: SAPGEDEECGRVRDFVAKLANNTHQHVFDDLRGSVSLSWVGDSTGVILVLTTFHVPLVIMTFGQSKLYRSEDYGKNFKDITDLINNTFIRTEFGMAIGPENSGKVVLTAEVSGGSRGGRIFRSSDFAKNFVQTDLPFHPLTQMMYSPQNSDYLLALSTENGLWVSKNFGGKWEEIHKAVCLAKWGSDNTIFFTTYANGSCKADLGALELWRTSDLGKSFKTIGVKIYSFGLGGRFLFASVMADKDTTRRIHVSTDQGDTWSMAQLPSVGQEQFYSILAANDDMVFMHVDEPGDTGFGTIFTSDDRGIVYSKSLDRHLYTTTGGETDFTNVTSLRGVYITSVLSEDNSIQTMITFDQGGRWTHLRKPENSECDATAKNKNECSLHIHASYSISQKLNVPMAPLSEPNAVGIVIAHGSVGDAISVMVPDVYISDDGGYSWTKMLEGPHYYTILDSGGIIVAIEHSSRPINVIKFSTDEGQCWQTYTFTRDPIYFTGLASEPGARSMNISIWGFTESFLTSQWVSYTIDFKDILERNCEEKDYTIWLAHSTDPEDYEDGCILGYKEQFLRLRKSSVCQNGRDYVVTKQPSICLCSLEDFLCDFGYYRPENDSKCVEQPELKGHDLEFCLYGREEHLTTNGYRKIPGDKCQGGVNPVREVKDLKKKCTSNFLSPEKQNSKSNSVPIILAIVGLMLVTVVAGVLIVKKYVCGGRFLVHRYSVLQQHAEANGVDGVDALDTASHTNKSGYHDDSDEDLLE
Method: (§2) Cells were then washed and incubated with Streptavidin-APC and analyzed using Fluorescence Activated Cell Sorting (FACS). […] Cells were transiently transfected with human Sortilin or lacZ (control) and GFP using Fugene and harvested after 24 h. GFP was either expressed by a second vector (Topo3.3, Invitrogen) or located on the same vector, separated by an IRES sequence (pCMV6-AC-IRES-GFP, Origene). Full-length Sortilin was used either untagged (Topo3.3) or with a C-terminal myc tag (pCMV6-AC-IRES-GFP). […] After washing cells 3 times in HBSS+1% BSA, cells were incubated in Streptavidin-APC (BD Biosciences, 1:20) on ice for 30 min. Then cells were washed again, resuspended in HBSS+1% BSA and analyzed on a FACSCanto™ flow cytometer (BD Biosciences, Mississauga, ON).

[5] = target: T2, human sortilin expressed on cells; test: FACS, blocking of biotinylated PGRN binding to sortilin-expressing HEK293T cells
Method: as §2

[6] = target: T2, human sortilin expressed on cells; test: FACS, blocking of PGRN-DyLight650 binding and endocytosis on sortilin-expressing cells
Sortilin = target: T3, Sortilin (Homo sapiens, UniProt Q99523); test: Cell-based FACS assay: biotinylated PGRN binding to HEK293T cells expressing Sortilin; parameters: Full-length Sortilin was used either untagged (Topo3.3) or with a C-terminal myc tag (pCMV6-AC-IRES-GFP); myc (only in the pCMV6-AC-IRES-GFP construct); expressed in transfected cells; host or cells: HEK293T; conditions: on ice 2 h, Streptavidin-APC
T3 sequence (Q99523 78-831): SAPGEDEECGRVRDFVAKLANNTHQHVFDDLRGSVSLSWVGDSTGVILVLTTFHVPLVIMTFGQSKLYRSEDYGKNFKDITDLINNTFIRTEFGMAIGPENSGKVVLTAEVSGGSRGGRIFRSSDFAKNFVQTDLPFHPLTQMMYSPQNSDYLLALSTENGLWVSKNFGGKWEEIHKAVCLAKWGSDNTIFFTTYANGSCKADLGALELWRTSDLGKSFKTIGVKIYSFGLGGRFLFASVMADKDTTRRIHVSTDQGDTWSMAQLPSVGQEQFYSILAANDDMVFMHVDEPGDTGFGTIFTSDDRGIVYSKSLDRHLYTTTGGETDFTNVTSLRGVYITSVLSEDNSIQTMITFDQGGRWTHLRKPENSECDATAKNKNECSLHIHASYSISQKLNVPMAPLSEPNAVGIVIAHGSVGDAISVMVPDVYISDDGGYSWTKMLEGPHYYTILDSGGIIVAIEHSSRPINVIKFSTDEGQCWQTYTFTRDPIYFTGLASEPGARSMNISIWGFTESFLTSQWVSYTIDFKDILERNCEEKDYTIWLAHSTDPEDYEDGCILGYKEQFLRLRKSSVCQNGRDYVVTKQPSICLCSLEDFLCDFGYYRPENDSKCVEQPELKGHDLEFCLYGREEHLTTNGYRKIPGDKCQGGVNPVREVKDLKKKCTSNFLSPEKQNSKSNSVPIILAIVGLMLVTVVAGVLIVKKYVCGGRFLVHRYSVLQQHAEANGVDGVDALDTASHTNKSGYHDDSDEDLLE
Method: HEK293T cells were transiently transfected with constructs for expressing Sortilin or LacZ (control) and incubated with biotinylated PGRN protein on ice for 2 h. Both human and mouse PGRN proteins were tested. Cells were then washed and incubated with Streptavidin-APC and analyzed using Fluorescence Activated Cell Sorting (FACS). For blocking assay, sortilin pro-domain peptide was used. Recombinant human PGRN (Adipogen) was biotinylated using a kit (EZ-link-Micro-NHS-PEG4 biotinylation kit, Thermo Scientific Pierce, #21955). Cells were transiently transfected with human Sortilin or lacZ (control) and GFP using Fugene and harvested after 24 h. GFP was either expressed by a second vector (Topo3.3, Invitrogen) or located on the same vector, separated by an IRES sequence (pCMV6-AC-IRES-GFP, Origene). Full-length Sortilin was used either untagged (Topo3.3) or with a C-terminal myc tag (pCMV6-AC-IRES-GFP). Human Progranulin was added in HBSS+1% BSA or PBS+1% BSA with or without Sortilin pro-peptide as a blocker, and incubated on ice for 2 h. […] Then cells were washed again, resuspended in HBSS+1% BSA and analyzed on a FACSCanto™ flow cytometer (BD Biosciences, Mississauga, ON). PGRN binding was measured as the median fluorescence intensity of APC on the GFP positive population.

B1: biotinylated PGRN peptide (peptide)
peptide: Biotin-TKCLRREAPRWDAPLRDPALRQLL
notes: Detected through streptavidin-Tb in formats #3, #6 and #10; also called 24 amino acid-sized C-terminal peptide of PGRN; biotinylated peptide
Kd [1]: 1.6 nM
Kd [2]: 1.4 nM
Kd [3]: 2 nM

B2: biotinylated mouse PGRN (ligand, UniProt P28798 18-589, looked up)
chain: TQCPDGQFCPVACCLDQGGANYSCCNPLLDTWPRITSHHLDGSCQTHGHCPAGYSCLLTVSGTSSCCPFSKGVSCGDGYHCCPQGFHCSADGKSCFQMSDNPLGAVQCPGSQFECPDSATCCIMVDGSWGCCPMPQASCCEDRVHCCPHGASCDLVHTRCVSPTGTHTLLKKFPAQKTNRAVSLPFSVVCPDAKTQCPDDSTCCELPTGKYGCCPMPNAICCSDHLHCCPQDTVCDLIQSKCLSKNYTTDLLTKLPGYPVKEVKCDMEVSCPEGYTCCRLNTGAWGCCPFAKAVCCEDHIHCCPAGFQCHTEKGTCEMGILQVPWMKKVIAPLRLPDPQILKSDTPCDDFTRCPTNNTCCKLNSGDWGCCPIPEAVCCSDNQHCCPQGFTCLAQGYCQKGDTMVAGLEKIPARQTTPLQIGDIGCDQHTSCPVGQTCCPSLKGSWACCQLPHAVCCEDRQHCCPAGYTCNVKARTCEKDVDFIQPPVLLTLGPKVGNVECGEGHFCHDNQTCCKDSAGVWACCPYLKGVCCRDGRHCCPGGFHCSARGTKCLRKKIPRWDMFLRDPVPRPLL
modifications: biotinylated (sites not given)
binding result [4]: binds

B3: sortilin pro-domain peptide (peptide, UniProt Q99523 34-77, looked up)
peptide: QDRLDAPPPPAAPLPRWSGPIGVSWGLRAAAAGGAFPRGGRWRR
notes: domain: pro-domain; also called Sortilin1 pro-domain peptide; sortilin pro-peptide
IC50 [5]: ~5900 nM
IC50 [6]: 450 nM

B4: non-biotinylated PGRN peptide (peptide)
peptide: TKCLRREAPRWDAPLRDPALRQLL
notes: also called unlabeled PGRN peptide; C-terminal peptide of PGRN
IC50 [6]: 35 nM

B5: mouse PGRN: mouse PGRN protein, biotinylated, tested in the FACS binding assay (protein)
chain: TQCPDGQFCPVACCLDQGGANYSCCNPLLDTWPRITSHHLDGSCQTHGHCPAGYSCLLTVSGTSSCCPFSKGVSCGDGYHCCPQGFHCSADGKSCFQMSDNPLGAVQCPGSQFECPDSATCCIMVDGSWGCCPMPQASCCEDRVHCCPHGASCDLVHTRCVSPTGTHTLLKKFPAQKTNRAVSLPFSVVCPDAKTQCPDDSTCCELPTGKYGCCPMPNAICCSDHLHCCPQDTVCDLIQSKCLSKNYTTDLLTKLPGYPVKEVKCDMEVSCPEGYTCCRLNTGAWGCCPFAKAVCCEDHIHCCPAGFQCHTEKGTCEMGILQVPWMKKVIAPLRLPDPQILKSDTPCDDFTRCPTNNTCCKLNSGDWGCCPIPEAVCCSDNQHCCPQGFTCLAQGYCQKGDTMVAGLEKIPARQTTPLQIGDIGCDQHTSCPVGQTCCPSLKGSWACCQLPHAVCCEDRQHCCPAGYTCNVKARTCEKDVDFIQPPVLLTLGPKVGNVECGEGHFCHDNQTCCKDSAGVWACCPYLKGVCCRDGRHCCPGGFHCSARGTKCLRKKIPRWDMFLRDPVPRPLL
binding of PGRN to sortilin-expressing, but not control (LacZ), HEK293T cells (Sortilin): strong and specific binding

Reference: patent US10849992B1, “Methods of screening for sortilin binding antagonists” (ALECTOR LLC, priority 2015, dated 2020)
